Laboratory results taken from patent publication US20200299400A1.

Biological target: human CD73 on human cell lines (human) (UniProt P21589)
Test: cell-based or functional assay

human CD73 on human cell lines (human), sequence (P21589 27-549): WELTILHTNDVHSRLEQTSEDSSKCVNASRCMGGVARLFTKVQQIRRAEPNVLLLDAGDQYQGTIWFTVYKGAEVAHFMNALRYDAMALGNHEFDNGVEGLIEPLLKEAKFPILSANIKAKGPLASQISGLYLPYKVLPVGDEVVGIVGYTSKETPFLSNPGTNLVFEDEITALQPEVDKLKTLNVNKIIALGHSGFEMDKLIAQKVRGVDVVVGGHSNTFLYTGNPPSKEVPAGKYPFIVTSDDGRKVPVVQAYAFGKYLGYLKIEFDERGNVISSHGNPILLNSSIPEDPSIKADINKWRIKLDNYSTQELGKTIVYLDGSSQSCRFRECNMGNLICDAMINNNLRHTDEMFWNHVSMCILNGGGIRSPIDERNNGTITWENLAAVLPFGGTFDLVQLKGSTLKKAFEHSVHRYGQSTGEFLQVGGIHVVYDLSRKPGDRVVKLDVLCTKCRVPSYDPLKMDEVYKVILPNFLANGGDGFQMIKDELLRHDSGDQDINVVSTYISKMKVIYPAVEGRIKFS

B1: mAb-CD73.4-IgG2 (antibody, V domains shown, not shown: a dimerising Fc or GST)
VH: QVQLVESGGGVVQPGRSLRLSCAASGFTFSNYGMHWVRQAPGKGLEWVAVILYDGSNKYYPDSVKGRFTISRDNSKNTLYLQMNSLRAEDTAVYYCARGGSSWYPDSFDIWGQGTMVTVSS
VL: DIQMTQSPSSLSASVGDRVTITCRASQGISSWLAWYQQKPEKAPKSLIYAASSLQSGVPSRFSGSGSGTDFTLTISSLQPEDFATYYCQQYNSYPLTFGGGTKVEIKR
internalization T1/2, Calu6: 36 min | internalization T1/2, NCI-H292: 16.6 min | internalization Ymax, Calu6: 75.6% | internalization Ymax, NCI-H292: 78.4%
